In article PMC12221286, “Endogenous formation of phosphatidylhomoserine in Escherichia coli through phosphatidylserine synthase” (The Journal of Biological Chemistry, 2025) one finds Km and kcat data, which are given here for one protein.

Substrate in this series: N[C@@H](CCO)C(=O)O
The series can be described thus: purified protein. To be noted: 0.3 mM 18:1/18:1 CDP-DAG, 10 mM MgCl2, 0.1 M KCl, 2.4 mM Triton X-100, pH 7.5, 25 °C, apparent constants. The class given is biochemical, Escherichia coli.

B1: EcPssA (E. coli phosphatidylserine synthase A, PssA) (Escherichia coli K-12) (protein)
chain: MLSKFKRNKHQQHLAQLPKISQSVDDVDFFYAPADFRETLLEKIASAKQRICIVALYLEQDDGGKGILNALYEAKRQRPELDVRVLVDWHRAQRGRIGAAASNTNADWYCRMAQENPGVDVPVYGVPINTREALGVLHFKGFIIDDSVLYSGASLNDVYLHQHDKYRYDRYHLIRNRKMSDIMFEWVTQNIMNGRGVNRLDDVNRPKSPEIKNDIRLFRQELRDAAYHFQGDADNDQLSVTPLVGLGKSSLLNKTIFHLMPCAEQKLTICTPYFNLPAILVRNIIQLLREGKKVEIIVGDKTANDFYIPEDEPFKIIGALPYLYEINLRRFLSRLQYYVNTDQLVVRLWKDDDNTYHLKGMWVDDKWMLITGNNLNPRAWRLDLENAILIHDPQLELAPQREKELELIREHTTIVKHYRDLQSIADYPVKVRKLIRRLRRIRIDRLISRIL
notes: purified EcPssA in Tris/NaCl/glycerol/octyl glucoside
In the case of B1, the Michaelis-Menten constant (Km) came out at 4.6 ± 0.02 mM and the kcat was 2.86 ± 0.04 s⁻¹.

A word on the Km: it is the concentration of substrate that gives half-maximal velocity. Broadly, the kcat is the number of substrate molecules converted per active site and unit of time at saturation.
